Each block holds one binder with its values, some of them ahead of it.
Experiments:
[1] = molecular target: T1, Signal peptide peptidase (SPP) fluorescent fusion protein (CFP or YFP fused to the NH2- or COOH-terminus of SPP), Q8TCT9; experiment: FRET or BRET; FLIM (fluorescence lifetime imaging microscopy) in live CHO cells co-transfected with CFP-SPP (donor) and YFP-SPP (acceptor) fusion constructs, 24 hours post-transfection, in Hank's Balanced Salt Solution; donor-only (empty vector) as negative control; details: remark: other sources report otherwise
T1 chain: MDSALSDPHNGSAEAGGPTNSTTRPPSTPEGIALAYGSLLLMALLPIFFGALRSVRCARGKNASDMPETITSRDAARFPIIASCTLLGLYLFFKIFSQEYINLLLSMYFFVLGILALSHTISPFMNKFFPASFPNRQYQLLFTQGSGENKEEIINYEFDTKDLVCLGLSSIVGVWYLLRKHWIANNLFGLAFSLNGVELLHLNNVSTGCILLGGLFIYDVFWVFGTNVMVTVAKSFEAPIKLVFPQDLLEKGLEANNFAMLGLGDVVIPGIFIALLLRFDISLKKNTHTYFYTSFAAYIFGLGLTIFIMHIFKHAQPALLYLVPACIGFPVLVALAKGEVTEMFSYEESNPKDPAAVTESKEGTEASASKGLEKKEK

[2] = molecular target: T2, Epitope tagged signal peptide peptidase (SPP): COOH-terminal V5 tagged SPP (SPPCTV5) and NH2-terminal FLAG tagged SPP (…), Q8TCT9; experiment: FRET or BRET; FLIM in fixed (4% paraformaldehyde), permeabilised HEK cells stably overexpressing SPPCTV5 and …; goat anti-V5 labelled with Alexa 488 (donor), mouse anti-FLAG labelled with Cy3 (acceptor); cells expressing only SPPCTV5 as negative control; details: remark: other sources report otherwise
T2 chain: T1 chain

CFP donor lifetime (donor CFP at COOH-terminus of SPP, acceptor YFP at COOH-terminus of SPP; donor only 2267 psec) [1]: 1490 psec
CFP donor lifetime (donor CFP at NH2-terminus of SPP, acceptor YFP at COOH-terminus of SPP; donor only 2267 psec) [1]: 1530 psec
CFP donor lifetime (donor CFP at NH2-terminus of SPP, acceptor YFP at NH2-terminus of SPP; donor only 2267 psec) [1]: 1760 psec
B1: Signal peptide peptidase (SPP) fluorescent fusion protein (CFP or YFP fused to the NH2- or COOH-terminus of SPP), Q8TCT9 1-377 (enzyme)
chain: T1 chain

Alexa 488 donor lifetime (donor Alexa 488 labeled SPPCTV5, acceptor Cy3 labeled …) [2]: 2200 psec
Alexa 488 donor lifetime (donor Alexa 488 labeled SPPCTV5, acceptor Cy3 labeled …; donor only 2504 psec) [2]: 1980 psec
B2: Epitope tagged signal peptide peptidase (SPP): COOH-terminal V5 tagged SPP (SPPCTV5) and NH2-terminal FLAG tagged SPP (…), Q8TCT9 1-377 (enzyme)
chain: T1 chain

— PMC1654158
